Positions count from the first letter of the chain named. In names and notes the source's numbering stands.
B1: SEQ ID NO: 1: PPO from Aspergillus sp. Protein. (protein, listed as Aspergillus sp.)
chain: MRLPCASSRVFRQVRAPLALLSRGQRHAVHTKQFDAAVIGGGITGLTAAYQLSRDPSCSKVTLYEKSPHLGGWLSSEQIPVPGGHVVFEYGPRTLRTSSPSCLPMMDLIMNLDLLDDVLICDKKSPAAQNRYIYYPDHLVRLPFPPTEGLLKTAWTLLMEPLFETFLYSAIFEKPKRAENTHILSRDESVADFVSRRFSPKISENLASAVMAGIFAGDVNRLSAEMAIGYVRELEKRYGSIVDGMMTQRASEMRAMPMDELLALESVAVPSHSDDRYWKSLRAVVSDASVLTLKNGLGQLTDAMAAQLRSSRNVEVVTGTEVTSLSQNPKTQDLTIGFGKNESKTHNRVIATHAPSSLARQIQNTKVGVVPSDTIRDLGQNNYAVTVMVVNLYYEDPDLVPVEGFGYLLPSSVPFEQNPERALGVIFGSQSSEGQDTAPGTKLTVMMGGHLWDGWSESDYPDPDKAIEMAQALLHRHLGIKTAPSVARARLLRDAIPQYTVGHLSRMKELSHSVRSDFHKRLTLAGAWYGTVGIGVVDCIRQGYLASSYGVGSKKLGPGNSRRPWTKHDFHNWELEGGIATSPVRLDNVHVTERQHY
B2: SEQ ID NO: 8: PPO from Aspergillus sp. fused to cTP. Chimeric Protein; cloned from SEQ ID NO: 1 (protein)
chain: MELSLLRPTTQSLLPSFSKPNLRLNVYKPLRLRCSVAGGMRLPCASSRVFRQVRAPLALLSRGQRHAVHTKQFDAAVIGGGITGLTAAYQLSRDPSCSKVTLYEKSPHLGGWLSSEQIPVPGGHVVFEYGPRTLRTSSPSCLPMMDLIMNLDLLDDVLICDKKSPAAQNRYIYYPDHLVRLPFPPTEGLLKTAWTLLMEPLFETFLYSAIFEKPKRAENTHILSRDESVADFVSRRFSPKISENLASAVMAGIFAGDVNRLSAEMAIGYVRELEKRYGSIVDGMMTQRASEMRAMPMDELLALESVAVPSHSDDRYWKSLRAVVSDASVLTLKNGLGQLTDAMAAQLRSSRNVEVVTGTEVTSLSQNPKTQDLTIGFGKNESKTHNRVIATHAPSSLARQIQNTKVGVVPSDTIRDLGQNNYAVTVMVVNLYYEDPDLVPVEGFGYLLPSSVPFEQNPERALGVIFGSQSSEGQDTAPGTKLTVMMGGHLWDGWSESDYPDPDKAIEMAQALLHRHLGIKTAPSVARARLLRDAIPQYTVGHLSRMKELSHSVRSDFHKRLTLAGAWYGTVGIGVVDCIRQGYLASSYGVGSKKLGPGNSRRPWTKHDFHNWELEGGIATSPVRLDNVHVTERQHY
B3: SEQ ID NO: 9: PPO from Aspergillus sp. fused to cTP. Chimeric Protein; cloned from SEQ ID NO: 2 (protein)
chain: B2 chain with V49A, S61H, P107S, S325T, K383R, M485I, L625F
B4: SEQ ID NO: 96: PPO from Trichoderma sp. Protein. (protein, listed as Trichoderma sp.)
chain: MSLKRADGAAMAFLRLSSAVCGRRRIPAGGLPADANVAVLGGGLTGLTTAYYLAKWLPPTAKITLLEASDRLGGWIKTDRVPVKVGGVEGVVSFERGPRSLSSLNKSTWRFDDLVLWDLALDLGLRVVSPPDKPRYIYYPDHLVPLPPHTSLAAFASEPLVLESLWAGFGYVLRRLFSRKAGVPVQDLSIADWIQHITGSRAVAENLASAMVHGIYGGDIYTLSARSVLDRFYWVHYLPALGPDVRHMALSEQVFMEAMGQDPLIRKLAQQPRGALLNFGEAGMETLPIALADALNGQANVEVKLGAKVTGLEYESETEMMKITTTGQDDSPAEKYHKVISTLPSQHLARITDTLPSLASSHAVSIMTVNIWYPQTNLKPPGFGYLIPLSVPAEQNPERALGVFFDSDVGVRGPDEPAGTKLFVLMGGHYYDKKQPGASVRVPSEEEAIEQAKRVLERHLGIPQSTPCFAMARLASECIPQYVCGHQDTMAAADEDLRDSFDGRLAVAGGSYTKIGAMGALRNGYDIANTVVREDWLTTGLEQLEFPTQFCGVPTERIPVRRFSRR
B5: SEQ ID NO: 97: PPO from Rhodotorula sp. Protein. (protein, listed as Rhodotorula sp.)
chain: MQSYSGNALARQSVPIKPIRRRTPRLNLIRSLPSPRFFVTSPSSSQRHDHPYHTLAILGGGLSGLSTAHYFLRTLSPSLRDQTRIVVLEKEERVGGWCRAVRIQNGRRLGENEKPEGTEDLLVFETGPRSVRPVGLLGWLTIEMAHELGLTPSIVTVPKSAPSARNRFIYTGHRSSTSISPILKAALPTIPSALLEPFRPRSPLHDDPSGLADESVDSFIARRFGRRLADELASAGIHGIYAGDTRRLSVRAVLPALWELEKEWGSVVIGALFGSFARRRGWKKNSPWRMRQQAETEEMERVKERIRAKGGEALVEDMEKASVWGVKGGLQVVTETLREKLEAEGVEFWMGEKGKVEHVEKVDGGWQIRTSSGALDASQLVTTIPQLLPSSLAPPALPATTVSVVNLAFEKPAPGSPPLHPAGFGYLIPRTVPSSLNPHRALGVIFDSDVMPDVDSSSSLGLTKLSLLLGGSYWLDRHPPPQPSHDDLVNAALETLRLHFPDRPIPKPVHAFTHTHVNCIPQVPPGFMPSFRAFGDRLREAGNVAVVGGGFAAVGVNGCVKAAWEVGSAMAQAVNAQAGGKEGEGEEKVREAVARTVKTGTEMWEL
B6: SEQ ID NO: 98: PPO from Hesseltinella sp. Protein. (protein, listed as Hesseltinella sp.)
chain: MPRSIVVLGGGISGLSAAYYLSRLVPQAHIRLIESNKRAGGFIKTQQVNDHLIFEAGPRTLRPHGTSGTVLLDMIKDLDLSPLLVNIPKSHPSAQHRYIEYHGQINQLPSGLADMLLHSPPIMDSVITAGMREPFLARASTTKDESLYNFMERRFNEHTALNLMGAMAHGIYAGDAKQLSVHSTFPILAACEQEYGSVVLGMLSGKLSVESPRERQLADACRAKDPEWFKQMQQSSVLGFLPGLGALPSRLTQFLSSQPNVSMQLGETVSRLDGQSSHQIEITTSQGQIYHADHIVSTLPSHALARISMPTTTSLPHLTHNPSADVALVNLAYEKCKVKPGLDGFGFLTPHADTMPPSQFPGLLGMIFDSNSLGVQDQDSNMVRFTAMIGGADWNLAFGSLHDNDAISSKALTMATAALSKYLEIHESPAHYHCRILRQCIPQYLVGHRQRMNELHAALQHSFGHTMSVTGASYLGVSVPDCIKHSRMLIEDLVDTGALGSKQAVITGLEKVTLPMYYKL
B7: SEQ ID NO: 101: 4IVO_B. Structure of human protoporphyrinogen IX oxidase(R59Q) [Homo sapiens] (protein, listed as Homo sapiens)
chain: MGRTVVVLGGGISGLAASYHLSRAPCPPKVVLVESSERLGGWIRSVRGPNGAIFELGPQGIRPAGALGARTLLLVSELGLDSEVLPVRGDHPAAQNRFLYVGGALHALPTGLRGLLRPSPPFSKPLFWAGLRELTKPRGKEPDETVHSFAQRRLGPEVASLAMDSLCRGVFAGNSRELSIRSCFPSLFQAEQTHRSILLGLLLGAGRTPQPDSALIRQALAERWSQWSLRGGLEMLPQALETHLTSRGVSVLRGQPVCGLSLQAEGRWKVSLRDSSLEADHVISAIPASVLSELLPAEAAPLARALSAITAVSVAVVNLQYQGAHLPVQGFGHLVPSSEDPGVLGIVYDSVAFPEQDGSPPGLRVTVMLGGSWLQTLEASGCVLSQELFQQRAQEAAATQLGLKEMPSHCLVHLHKNCIPQYTLGHWQKLESARQFLTAHRLPLTLAGASYEGVAVNDCIESGRQAAVSVLGTEPNS
B8: SEQ ID NO: 102: Glycine max protoporphyrinogen oxidase 1, chloroplastic, XP_003536005.1 (protein)
chain: MVSVFNEILFPPNQTLLRPSLHSPTSFFTSPTRKFPRSRPNPILRCSIAEESTASPPKTRDSAPVDCVVVGGGVSGLCIAQALATKHANANVVVTEARDRVGGNITTMERDGYLWEEGPNSFQPSDPMLTMVVDSGLKDELVLGDPDAPRFVLWNRKLRPVPGKLTDLPFFDLMSIGGKIRAGFGALGIRPPPPGHEESVEEFVRRNLGDEVFERLIEPFCSGVYAGDPSKLSMKAAFGKVWKLEKNGGSIIGGTFKAIQERNGASKPPRDPRLPKPKGQTVGSFRKGLTMLPDAISARLGNKVKLSWKLSSISKLDSGEYSLTYETPEGVVSLQCKTVVLTIPSYVASTLLRPLSAAAADALSKFYYPPVAAVSISYPKEAIRSECLIDGELKGFGQLHPRSQGVETLGTIYSSSLFPNRAPPGRVLLLNYIGGATNTGILSKTDSELVETVDRDLRKILINPNAQDPFVVGVRLWPQAIPQFLVGHLDLLDVAKASIRNTGFEGLFLGGNYVSGVALGRCVEGAYEVAAEVNDFLTNRVYK
modifications: Glycine max
B9: SEQ ID NO: 100: PPO from Rhizophagus sp. Protein. (protein, listed as Rhizophagus sp.)
chain: MSSPNNFVILGGGISGLSAAWYLSRYAPSTTKILVLEGSNRFGGWIKSKRVGQHKILFEQGPRTLRPNGIGGSVVLDMVNRLNLIPSLHAVTKDDDAAKDRFIYYPDKIVKLPGTSLLSSMKSVFTNNFLLKSIPSILFEPFIKPARNYHDETIHEFISRRFSKSISDILISALIHGIYAGDINKLSIRSTFTRLYNLEQKYGSVIKGLLMSNKEEFLSQQDKYLLKIINDENKDFLSIFKNVSLYSFKDGIEQLSSAIVNDLKNKENVQLKTNNQVTKLEFGENVKIFTNEAVYEADHVISALPSRALYNILPEKDVLPHLNYNPSVSVATINLAYAHPKILPVKGFGYLIPQSTPHNPYHVLGVVFDSNAMPLQDEPSRTYTKLTIMMGGHYFNSISEKDDFPKKEILLQQSIEILEKHLGIYSTPLYYLVDIQKNCIPQYYVGHYSRLKELHYAIKNHYANRLSVTGASYWGISINDCVLNSAKLVLNILSNSPNVVTGLEEVEIQNEHYL

Key:
[1] = tested on: transgenic Arabidopsis plants; assay type: in vivo; details: for level of resistance against Aurora (in words): Aurora 0.01% to 0.5%, compared to control plants; for level of resistance to Strike, more tolerant to treatment as compared to control plants: Strike 0.01% to 1%, 5 orders of magnitude
Description: (SEQ ID NO: 8 was cloned from SEQ ID NO: 1, SEQ ID NO: 9 was cloned from SEQ ID NO: 2, SEQ ID NO: 10 was cloned from SEQ ID NO: 3, SEQ ID NO: 11 was cloned from SEQ ID NO: 4, SEQ ID NO: 12 was cloned from SEQ ID NO: 5, SEQ ID NO: 13 was cloned from SEQ ID NO: 6 SEQ ID NO: 14 was cloned from SEQ ID NO: 7). […] FIG. 1B summarizes the results of the three experiments described hereinabove.

Arabidopsis plants = details: yes/no; for High concentration herbicide tolerance: Table 1; for Herbicide tolerance: Table 2, FIG. 6C legend: Star 1.25 kg/hectare

Molecule	level of resistance against Aurora (in words) [1]	level of resistance to Strike, more tolerant to treatment as compared to control plants [1]	High concentration herbicide tolerance (Arabidopsis plants)	Herbicide tolerance (Arabidopsis plants)
B1	very high levels of resistance	about 10^5		
B2	very high levels of resistance	about 10^5		
B3	very high levels of resistance	about 10^5		
B4			yes	yes
B5			yes	yes
B6			yes	yes
B7			no	no
B8			no	
B9				no

Source: patent US12674174B2, “Protoporphyrinogen oxidase (PPO) resistance plant” (PLANTARC BIO LTD., priority 2022, dated 2026)
